# From the RNAGym collection of RNA variant scans (doi:10.1073/pnas.2313332121)
# Variants at the floor of the assay were thinned out.
# B1: TPR 5TU (parent)
# chain: GGAUCUUCUCGAUCUAACAAAAAAGACAAAUCUGCCACAAAGCUUGAGAGCAUCUUCGGAUGCAGAGGCGGCAGCCUUCGGUGGCGCGAUAGCGCCAACGUUCUCAACUAUGACACGCAAAACGCGUGCUCCGUUGAAUGGAGUUUAUCAUG
# Variants of: B1
# Assay: polymerase ribozyme fitness, log enrichment relative to wild type (log ratio); higher = more active; in vitro selection for triplet polymerase activity
# How it was run: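 PCR was used to build mutant libraries for each subunit of a heterodimeric triplet polymerase ribozyme, which were then transcribed. A single in vitro selection round, in triplicate, used a frozen incubation at −7 °C and recovered extended constructs by gel excision, streptavidin beads and RT-PCR. Fitness is the logarithm of genotype enrichment relative to wild-type enrichment, averaged over replicates with inverse-variance weights. The logarithm is base 2, and after Illumina sequencing only genotypes with ≥10 input reads and ≥1 read per output were kept.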
row,Variant,polymerase ribozyme fitness (log ratio)
1,G11C A20U A40U U82G G83A C93A C108A,≤ -4.2
2,A12C G58A G84U A115U,-3.83
3,C10G C85G G92A C125G,≤ -4.2
4,C10G A37U U55A G94A C95G G140C,≤ -4.2
5,G11C A30U C95A C108G U148A,≤ -4.2
6,A12G A28C C79U U82C G86U G88A A106U C129U U148G G152U,≤ -4.2
7,G11C A41C C95A U146G,-3.34
8,G11U C35U C51U U55G G59U G68A G80A G83A,≤ -4.2
9,G11U A23U C32U C57U G58A U77C C93G C96U A97U G100U A110U G143C,≤ -4.2
10,A12G G58A G81C G84A G133C U144G,-1.22
11,G11U C69U U134C,-1.33
12,A12C C35U A49C A64U C95U C123U,≤ -4.2
13,A12C G46U A113U C118U,-3.95
14,A12G C36A C69U C85G A89C A113U,≤ -4.2
15,C10G C85U,-3
16,A12G G48A C54U C85G G117U,-2.26
17,G11A C27A A73C G74A G81A A89U C93G G126U,≤ -4.2
18,C10G C75U,-3.87
19,G11C U13A A64U G74C C85U C96G U102C,≤ -4.2
20,C10U A12C G34A G92C,-4.16
21,C10G A52C G70U C85G G117U,≤ -4.2
22,G11A G46U G92A C118U,≤ -4.2
23,C10G A26C C75A G84A,≤ -4.2
24,C10U C27G C54U G92C C114G,≤ -4.2

row,Variant,polymerase ribozyme fitness (log ratio)
1,G11A A73G G92A A121G,≤ -4.2
2,A12C G25U C51G C72G C118G,≤ -4.2
3,A12G A29C C35G C95A C118A G133C,≤ -4.2
4,G11C C35G A52U C63A G94A C131U,≤ -4.2
5,G11A A39U,-3.28
6,C10G G11C A12G G70U C85G U101C G128A,≤ -4.2
7,G11U A47C G50U C57G A64U C76G,≤ -4.2
8,C10U G25U A40U C79U G84A A142C,≤ -4.2
9,A12C C87U A115C,-1.97
10,A12G G48A G71A G86A G126U C131A G140U C149A A150G,≤ -4.2
11,G11A U55A,-1.11
12,G11U C14G A26G U33G C57A C99G A120G,≤ -4.2
13,A12C A52C C87U A89C,-3.43
14,A12G G42A G62A U101C C105G U134G,≤ -4.2
15,G11A G84A C85U G88A C99A C131G U139C,≤ -4.2
16,C10U G84U,-4.13
17,G11C C32U C69A A121G,-4.12
18,C10G A41G A115G,≤ -4.2
19,C10U C87U,-2.87
20,C10U A28U A52G U56A A73C C93U U145C C149G,≤ -4.2
21,G11A U55A U77G G83C A142U,≤ -4.2
22,G11A A49C,≤ -4.2
23,C10G A20C C36A U53A U134A A142U,≤ -4.2
24,A12G U15A U55G C87G C99G C114A A119U,≤ -4.2

row,Variant,polymerase ribozyme fitness (log ratio)
1,C10U G42C U53A A66G A91G A110C,≤ -4.2
2,C10U C76U A91U C95A A113U A120U,≤ -4.2
3,A12G G70A C118U,-3.56
4,G11A C27G U53A G83U G86A G140A,≤ -4.2
5,A12C C14A A30U A39C G58C G83C G124U,≤ -4.2
6,A12G C35U G83A,-0.598
7,A12C U53A C125G A150U U151G,≤ -4.2
8,G11C U15G A40C C87A U148G,≤ -4.2
9,C10U A39G G42U G59A A60C C63U A91U C105U A115C A142C,≤ -4.2
10,C10G A39U G84A,≤ -4.2
11,A12G A17U A49G A60G A91G,-2.9
12,C10G A52G C54U G58C C79A C95U,-3.91
13,C10U A26U G42A A47U A89C C96U A107U G112C,≤ -4.2
14,C10U A39G C54G C63A G70C C93U G141A,≤ -4.2
15,A12G A29G U55A C85U C96U C105U,≤ -4.2
16,G11A A110G,-3.76
17,G11C C32G G34C G88C A106G C108A A110U C149G,≤ -4.2
18,C10U C54U G71U C85A C96G G133C U145G G152A,≤ -4.2
19,G11U A19C G68A G74A C87A C149G,≤ -4.2
20,A12G A16U C54U A73G G83U G84C C95G G140C,≤ -4.2
21,G11U C93G,-3.88
22,A12G C69A C96U A121C U127G A147U,-4.02
23,A12C A20C A26G,≤ -4.2
24,C10U U55G,-3.19

row,Variant,polymerase ribozyme fitness (log ratio)
1,C10G G42U C63U C95A C123G,≤ -4.2
2,G11U A40U G84A A110G,-3.56
3,C10U C54U U55G,≤ -4.2
4,G11U G42A G50A C54A C95U G124A,≤ -4.2
5,A12G A73U C96A U109A C116U,-2.66
6,C10G U61C G86C C105G A119C,≤ -4.2
7,G11U A39U C57U G70A U101G,≤ -4.2
8,C10U A20U C57A U145C,-3.45
9,G11A U13C C36U A49U A60U,-4.19
10,G11A U55G G74C U77C A98U A115C,≤ -4.2
11,C10U A60G A64U C85U C129A,≤ -4.2
12,C10G C57G G92C A113C G133A,≤ -4.2
13,G11A G34C U56A C57U C99G A142C,≤ -4.2
14,C10U A40G,-4.12
15,A12G U13G A121G,-2.27
16,C10U U45G A60C C85U,≤ -4.2
17,C10G U13G A16C U56A G92C C105A C114U,≤ -4.2
18,A12C C114U,-2.51
19,A12C C38U G50C U53A U55G G71U G92U U148C,≤ -4.2
20,C10G A20G G50U G59C C87U,≤ -4.2
21,A12G C63U U134A,-2.26
22,A12G A89C C96G,-1.66
23,A12C C93A,-2.68
24,G11U G25C C32U G50C A60G C95U,≤ -4.2

row,Variant,polymerase ribozyme fitness (log ratio)
1,G11A U82A,-1.4
2,G11A U56A C76U U111C U148A,≤ -4.2
3,G11A U61A C85A A122C A150C,≤ -4.2
4,G11U C38U G58C C96U A98G,-1.45
5,A12G A41C A66G C79U G86C C103A C105A A107G,≤ -4.2
6,C10G U146G,-4.19
7,A12G G25A C87G C116A U148G,≤ -4.2
8,A12C A113G,-2.73
9,C10G C18G A21C G25A G65A C79A U104G,≤ -4.2
10,G11A C51U G81C G92A U151A,≤ -4.2
11,C10U G94A,-2.69
12,C10U U15A G50C C76U C85A,≤ -4.2
13,G11U G42U G68A G86U C95G A137C,≤ -4.2
14,G11C C14A A16G C87U,≤ -4.2
15,C10U A19U A21U C32G G42A G80C A137U,≤ -4.2
16,A12C A21C A23C G136A,≤ -4.2
17,A12G G70A C85U C105G C116A,≤ -4.2
18,A12G A39C G84A A138C G143U U148C,≤ -4.2
19,A12G C87A,≤ -4.2
20,A12G G84A,-0.68
21,A12C U33A G42U A60G C93G,≤ -4.2
22,G11C U53A C72G C79A U82A U90G A106C,≤ -4.2
23,A12C A37G G46C C96G A110G C116U U135G,≤ -4.2
24,C10G C27A U82C G83A A91U,≤ -4.2

row,Variant,polymerase ribozyme fitness (log ratio)
1,C10G U61A C93A U139A,≤ -4.2
2,G11U C18G C54A G88A C118A,≤ -4.2
3,A12G A37G C54A C57U G71A A115G,≤ -4.2
4,G11C U33G C38U A47C A49C G92A A97G U111G C118U G133U,-4.17
5,C10G A20C U33G C93A G94U C96G C114U U145A,≤ -4.2
6,G11A C14U U61A G80C C85G C96U A98G C108A,≤ -4.2
7,C10U A39G U102C,≤ -4.2
8,G11C C125G A142C,≤ -4.2
9,G11U A28U C43U C87A C99G G126A,-4.16
10,C10A G59A A91U U111A U127C A138U A150G,≤ -4.2
11,A12G A89G,-1.16
12,A12G G92C A107G G133U,≤ -4.2
13,G11C C35U,-2.11
14,A12C A16G A39U A91C G141C U148G,≤ -4.2
15,G11U G84A U90C A119G C125A,≤ -4.2
16,G11A A23U A66C G92A C114U C125A,≤ -4.2
17,A12C A37C U53C G86U A97G A113U,≤ -4.2
18,G11C A19G A52G G68C A97G C132A U134C U144A,≤ -4.2
19,A12G A21G C43U U55A G83U U144G,≤ -4.2
20,A12C C43U A52C G84U C93G C132G,≤ -4.2
21,A12G A16C A119U A121G U135C U146A A150G,-4.12
22,G11C U55A C76G G140U,≤ -4.2
23,G11A A21U C87A,≤ -4.2
24,C10U A52U A60C G88U,≤ -4.2

row,Variant,polymerase ribozyme fitness (log ratio)
1,A12C G50A G59C G92U,-2.67
2,G11U A23U G68A U130G U135C,≤ -4.2
3,A12C A64U G68C G84U A106C U145G,≤ -4.2
4,A12C G92C,-0.73
5,G11U U104G,-1.58
6,A12G C32U C85A A137C,≤ -4.2
7,G11U G42C A47C G74A C96G C105U G140A,≤ -4.2
8,A12C A39U G88C A115C G126A,≤ -4.2
9,C10G A30U C43G G58A G68A G80A A113C,≤ -4.2
10,A12G A37C C87U G92A A119U G136A,-0.359
11,G11U C18U G84U,-3.2
12,C10G C14U G50C C54A C76G C105G,≤ -4.2
13,C10U A39C C57A G59C A66U G67U G81A C85G C105A U135C G140C G143C,≤ -4.2
14,C10U C38U A73G A89G A97G C116G A122U C129A,≤ -4.2
15,G11A C85U G92C G143A,-4.01
16,A12C A113G A119U U145A,-3.25
17,C10U G42C A49C A66G C79G A91G C125A A147G A150C,≤ -4.2
18,A12G U13C C38U G58A A73U,-1.35
19,C10G C14U C36A C79U G92U,≤ -4.2
20,G11A G86A,-2.24
21,C10U A23U U33G C96G A115C,≤ -4.2
22,C10U C18G A19C A40U C87G G88U,≤ -4.2
23,C10U G80C G84U C87A C105A U151G,≤ -4.2
